Source: US6528275B1, “Substrates and inhibitors of proteolytic enzymes” (Peptide Therapeutics Limited, priority 1996, dated 2003)

Assays:
Assay in all cases: Der pI substrate assay with FRET peptides (fluorescence, Km, kcat/Km)
Assay type in all cases: biochemical, house dust mite
Settings in all cases: other: purified Der pI; peptides SEQ ID Nos. 1-76; pH 8.25
[1] = substrate: CC(C)CC[C@H](NC(=O)[C@H](C)NC(=O)[C@H](Cc1ccc(-c2ccccc2)cc1)NC(=O)c1ccccc1N)C(=O)N[C@@H](CC(C)C)C(=O)N[C@@H](Cc1ccc(O)c([N+](=O)[O-])c1)C(=O)N[C@@H](CC(=O)O)C(N)=O
Procedure: (§1) Using the general techniques described above, the following compounds were prepared and assayed as potential substrates against Der pI purified as described above.
(§2) Each mixture of 20 compounds in the libraries of the apparatus described herein was screened at a concentration of 1.0 μM per compound in an assay against the cysteinyl protease Der pI.
(§3) Plate assays were carried out in 96 well plate format, using 0.1 ug of Der pI per 100 μL assay volume in each well and using 20 μM of the substrate. All assays were performed in Assay Buffer (AB; 50 mM potassium phosphate, pH 8.25 containing 1 mM ethylenediaminetetraacetic acid (EDTA) and 1 mM dithiothreitol (DTT). The Der pI enzyme is pre-activated by addition of DTT and this in incubated at room temperature for 5 min. prior to initiation of the assay. As an example for the screening methodology, each well contains a 5 μL of a 20 μM solution of the test compound in DMSO, 10 μL of a 200 μM aqueous solution of the substrate, 2, and 85 μL of Der pI in AB is added to initiate the reaction. Enzyme activity is monitored by fluorescence using 320 nm for excitation and 420 nm for the emission wavelengths using a Labsystems Fluroskan Ascent machine. Kinetic measurements were carried out using a Hitachi F-4500 Fluorescence Spectrophotometer.

[2] = substrate: CC(C)CC[C@H](NC(=O)[C@H](C)NC(=O)[C@H](Cc1ccc(-c2ccccc2)cc1)NC(=O)c1ccccc1N)C(=O)N[C@@H](CC1CCCCC1)C(=O)N[C@@H](Cc1ccc(O)c([N+](=O)[O-])c1)C(=O)N[C@@H](CC(=O)O)C(N)=O
Procedure: as §1, §2, §3

[3] = substrate: CC(C)CC[C@H](NC(=O)[C@H](C)NC(=O)[C@H](Cc1ccc(-c2ccccc2)cc1)NC(=O)c1ccccc1N)C(=O)N[C@@H](CCCCN)C(=O)N[C@@H](Cc1ccc(O)c([N+](=O)[O-])c1)C(=O)N[C@@H](CC(=O)O)C(N)=O
Procedure: as §1, §2, §3

[4] = substrate: CC(C)CC[C@H](NC(=O)[C@H](C)NC(=O)[C@H](Cc1ccc(-c2ccccc2)cc1)NC(=O)c1ccccc1N)C(=O)N[C@@H](CO)C(=O)N[C@@H](Cc1ccc(O)c([N+](=O)[O-])c1)C(=O)N[C@@H](CC(=O)O)C(N)=O
Procedure: as §1, §2, §3

[5] = substrate: CC(C)CC[C@H](NC(=O)[C@H](C)NC(=O)[C@H](Cc1ccc(-c2ccccc2)cc1)NC(=O)c1ccccc1N)C(=O)N[C@@H](Cc1cccnc1)C(=O)N[C@@H](Cc1ccc(O)c([N+](=O)[O-])c1)C(=O)N[C@@H](CC(=O)O)C(N)=O
Procedure: as §1, §2, §3

[6] = substrate: CC(C)CC[C@H](NC(=O)[C@H](CCCCN)NC(=O)[C@@H](NC(=O)c1ccccc1N)C(C)C)C(=O)N[C@@H](CO)C(=O)N[C@@H](Cc1ccc(O)c([N+](=O)[O-])c1)C(=O)N[C@@H](CC(=O)O)C(N)=O
Procedure: as §1, §2, §3

[7] = substrate: CC(C)[C@H](NC(=O)c1ccccc1N)C(=O)N[C@@H](C)C(=O)N[C@@H](CCC(N)=O)C(=O)N[C@@H](CO)C(=O)N[C@@H](Cc1ccc(O)c([N+](=O)[O-])c1)C(=O)N[C@@H](CC(=O)O)C(N)=O
Procedure: as §1, §2, §3

[8] = substrate: CC(C)[C@H](NC(=O)c1ccccc1N)C(=O)N[C@@H](C)C(=O)N[C@@H](CCCCN)C(=O)N[C@@H](CO)C(=O)N[C@@H](Cc1ccc(O)c([N+](=O)[O-])c1)C(=O)N[C@@H](CC(=O)O)C(N)=O
Procedure: as §1, §2, §3

[9] = substrate: CC(C)[C@H](NC(=O)c1ccccc1N)C(=O)N[C@@H](C)C(=O)N[C@@H](Cc1cccnc1)C(=O)N[C@@H](CO)C(=O)N[C@@H](Cc1ccc(O)c([N+](=O)[O-])c1)C(=O)N[C@@H](CC(=O)O)C(N)=O
Procedure: as §1, §2, §3

[10] = substrate: CC(C)[C@H](NC(=O)c1ccccc1N)C(=O)N[C@@H](C)C(=O)N[C@H](C(=O)N[C@@H](CO)C(=O)N[C@@H](Cc1ccc(O)c([N+](=O)[O-])c1)C(=O)N[C@@H](CC(=O)O)C(N)=O)[C@@H](C)O
Procedure: as §1, §2, §3

[11] = substrate: CCCC[C@H](NC(=O)[C@H](C)NC(=O)[C@@H](NC(=O)[C@H](Cc1cccc2ccccc12)NC(=O)c1ccccc1N)C(C)C)C(=O)N[C@@H](CO)C(=O)N[C@@H](Cc1ccc(O)c([N+](=O)[O-])c1)C(=O)N[C@@H](CC(=O)O)C(N)=O
Procedure: as §1, §2, §3

[12] = substrate: CCCC[C@H](NC(=O)[C@H](C)NC(=O)[C@@H](NC(=O)c1ccccc1N)C(C)C)C(=O)N[C@@H](CO)C(=O)N[C@@H](Cc1ccc(O)c([N+](=O)[O-])c1)C(=O)N[C@@H](CC(=O)O)C(N)=O
Procedure: as §1, §2, §3

B1: Der pI (Dermatophagoides pteronyssinus) (protein)
chain: TNACSINGNAPAEIDLRQMRTVTPIRMQGGCGSCWAFSGVAATESAYLAYRNQSLDLAEQELVDCASQHGCHGDTIPRGIEYIQHNGVVQESYYRYVAREQSCRRPNAQRFGISNYCQIYPPNVNKIREALAQTHSAIAVIIGIKDLDAFRHYDGRTIIQRDNGYQPNYHAVNIVGYSNAQGVDYWIVRNSWDTNWGDNGYGYFAANIDLMMIEEYPYVVIL
notes: tissue SmithKline-Beecham, U.K (crude mite extract); host or cells: crude house dust mite extract
Km [1]: 3.7 µM | Km [2]: 2.5 µM | Km [3]: 2 µM | Km [4]: 2.5 µM | Km [5]: 4 µM | Km [6]: 35 µM | Km [7]: 6 µM | Km [8]: 14 µM | Km [9]: 10 µM | Km [10]: 6 µM | Km [11]: 17 µM | Km [12]: 12 µM
